The record followed here is patent US20240010735A1 (EISAI R AND D MANAGEMENT, published 2024).

The target in assay [1] is T1, mouse EphA4 extracellular region-SEAP-His protein (mouse).
T1 construct: also called mouse EphA4 extracellular region-SEAP-His 10
Description: competition ELISA; captured mouse EphA4 extracellular region-SEAP-His, competitor biotinylated mouse EphrinB2-Fc chimera (2.5 nM). The procedure:
Anti-alkaline phosphatase antibodies (Thermo […]) were coated onto the wells of a 96-well plate (Nunc). After incubating at 4° C. overnight, the wells were blocked at room temperature for 1 hour by 1% Block Ace (DS Pharma Biomedical). After washing 3 times with 0.02% Tween 20/PBS (Thermo […]), mouse EphA4 extracellular region-SEAP-His protein was added to the wells (final concentration 10 nM), and incubated at room temperature for 1 hour. After washing 3 times, the ligand and antibody A (0, 0.003, 0.01, 0.03, 0.1, 0.3, 1, 3, 10, 30, 100, 300, 1000, 3000 nM) were supplemented to the wells. Note that biotinylated mouse EphrinA1-Fc chimera (R&D Systems, final concentration 6 nM) and biotinylated mouse EphrinB2-Fc chimera (R&D Systems, final concentration 2.5 nM) were employed as ligands. After incubating at room temperature for 1 hour and washing 3 times, horseradish peroxidase-labeled streptavidin (GE Healthcare) was added, and incubated at room temperature for 1 hour. After washing 3 times, TMBZ (3,3′, 5,5′-tetramethylbenzidine, Sigma) solution was added to the wells, and incubated at room temperature for 2 minutes. An equal amount of quenching solution (1 N H₂SO₄, Wako Pure Chemicals) was added to the wells, and absorbance at 450 nm was read by a microplate reader (PerkinElmer). […]

In assay [2] the target is T2, human EphA4 extracellular region-SEAP-His protein (human, UniProt P54764 20-547).
T2 construct: also called human EphA4 extracellular region-SEAP-His 10; not shown: secretory alkaline phosphatase (SEAP); histidine tag
T2 sequence (P54764 20-547): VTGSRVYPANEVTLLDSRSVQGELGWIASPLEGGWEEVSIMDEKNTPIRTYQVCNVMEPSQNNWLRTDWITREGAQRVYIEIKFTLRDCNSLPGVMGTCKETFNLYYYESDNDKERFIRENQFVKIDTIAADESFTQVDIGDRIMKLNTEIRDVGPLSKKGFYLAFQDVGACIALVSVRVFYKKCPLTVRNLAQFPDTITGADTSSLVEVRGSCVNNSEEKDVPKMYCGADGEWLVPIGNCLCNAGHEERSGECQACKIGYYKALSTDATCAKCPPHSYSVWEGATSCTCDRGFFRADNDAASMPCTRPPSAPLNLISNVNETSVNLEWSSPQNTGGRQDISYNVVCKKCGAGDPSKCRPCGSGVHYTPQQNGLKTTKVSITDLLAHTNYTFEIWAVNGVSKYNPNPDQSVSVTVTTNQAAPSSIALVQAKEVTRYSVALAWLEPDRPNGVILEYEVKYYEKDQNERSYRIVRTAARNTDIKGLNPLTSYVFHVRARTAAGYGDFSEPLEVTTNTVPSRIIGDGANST
The assay can be described thus: SPR (Biacore T200): human EphA4 extracellular region-SEAP-His captured on anti-His antibody, antibody A 1.6-100 nM as analyte, 1:1 fit. Here is the method: The binding affinity of antibody A against mouse and human EphA4 was determined by surface plasmon resonance (SPR method) employing Biacore T200 (GE Healthcare). First, anti-His antibodies (GE Healthcare, 28-9950-56) were fixed to a sensor chip CM5. Fixation was carried out by amine coupling method employing N-hydroxysuccinimide (NHS) and N-ethyl-N′-(3-dimethylaminopropyl) carbodiimide hydrochloride salt (EDC), and ethanolamine was employed for blocking (the sensor chip and reagents for fixation are all from GE Healthcare). This was diluted with the fixation buffer (10 mM sodium acetate, pH 4.5) to 3.5 μg/mL, and fixed onto the sensor chip according to the protocol accompanying Biacore T200. Mouse or human EphA4 extracellular region-SEAP-His 10 was diluted with the running buffer HBS-EP (GE Healthcare, BR-1001-88), and the solution was sent and captured onto the flow cell for 120 seconds (about 10 RU of captured amount). […] Fitting analysis by 1:1 binding model employing the software accompanying the system, BIA evaluation software, was carried out against the binding reaction curve obtained, and the binding affinity (KD=kd/ka) against mouse and human EphA4 was calculated.

The target of assay [3] is T1, mouse EphA4 extracellular …. Description: ELISA: EphA4 extracellular region-SEAP-His (1 nM) captured on anti-alkaline phosphatase antibody, antibody B titrated with human IgG 100 µg/mL, HRP anti-human IgG, OD450 as % of top concentration. The procedure: (§1) Anti-alkaline phosphatase antibodies (Thermo […]) were coated onto the wells of a 96-well plate (Nunc). After incubating at 4° C. overnight, the wells were blocked at room temperature for 1 hour by 1% Block Ace (DS Pharma Biomedical). After washing 3 times with 0.05% Tween 20/PBS (Thermo […]), mouse, rat, monkey, and human EphA4 extracellular region-SEAP-His proteins (final concentration 1 nM) were seeded into the wells, and incubated at room temperature for 1 hour. After washing 3 times, human IgG solution (100 μg/mL, Mitsubishi Pharma Corporation) and antibody B (0, 0.00013, 0.00064, 0.0032, 0.016, 0.08, 0.4, 2, 10 μg/mL) were supplemented to the wells, and incubated at room temperature for 1 hour. Horseradish peroxidase-labeled donkey anti-human IgG antibody (Jackson ImmunoResearch Laboratories) was added, and incubated at room, temperature for 1 hour. After washing 3 times, TMBZ (3,3′,5,5′-tetramethylbenzidine, Sigma) solution was added to the wells, and upon confirmation of modest coloring, an equal amount of quenching solution (1 N H₂SO₄, Wako Pure Chemicals) was added to the wells, and absorbance at 450 nm was read by a microplate reader (PerkinElmer).

The target of assay [4] is T3, rat EphA4 extracellular region-SEAP-His protein (rat, UniProt D3ZZK3 20-547).
T3 construct: extracellular domain; Its preparation is not described; the limits 20-547 are stated for the Fc-His construct of rat EphA4; not shown: secretory alkaline phosphatase (SEAP); histidine tag
T3 sequence (D3ZZK3 entry or part of it): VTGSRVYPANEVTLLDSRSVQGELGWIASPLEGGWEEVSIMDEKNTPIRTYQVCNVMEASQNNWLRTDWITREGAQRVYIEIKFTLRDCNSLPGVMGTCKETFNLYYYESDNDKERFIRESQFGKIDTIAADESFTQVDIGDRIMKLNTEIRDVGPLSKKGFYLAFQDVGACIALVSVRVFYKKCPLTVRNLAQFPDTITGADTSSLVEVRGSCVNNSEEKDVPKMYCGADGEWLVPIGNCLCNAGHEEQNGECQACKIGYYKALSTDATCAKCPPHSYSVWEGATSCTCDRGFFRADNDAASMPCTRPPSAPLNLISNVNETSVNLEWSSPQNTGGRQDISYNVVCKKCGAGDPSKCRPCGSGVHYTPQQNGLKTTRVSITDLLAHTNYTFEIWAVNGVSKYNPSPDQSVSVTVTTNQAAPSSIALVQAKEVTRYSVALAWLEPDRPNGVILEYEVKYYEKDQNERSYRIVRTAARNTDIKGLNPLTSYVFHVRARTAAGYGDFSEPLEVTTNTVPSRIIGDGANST
Described as above. The procedure: as §1

The target in assay [5] is T4, monkey EphA4 extracellular region-SEAP-His protein (monkey).
T4 construct: Its preparation is not described; not shown: secretory alkaline phosphatase (SEAP); histidine tag
T4 sequence (chain, as listed by the source): as the sequence (P54764 20-547) above, with N406S counted along it
Described as above. Here is the method:
as §1

T1 sequence (chain, as listed by the source limits assumed): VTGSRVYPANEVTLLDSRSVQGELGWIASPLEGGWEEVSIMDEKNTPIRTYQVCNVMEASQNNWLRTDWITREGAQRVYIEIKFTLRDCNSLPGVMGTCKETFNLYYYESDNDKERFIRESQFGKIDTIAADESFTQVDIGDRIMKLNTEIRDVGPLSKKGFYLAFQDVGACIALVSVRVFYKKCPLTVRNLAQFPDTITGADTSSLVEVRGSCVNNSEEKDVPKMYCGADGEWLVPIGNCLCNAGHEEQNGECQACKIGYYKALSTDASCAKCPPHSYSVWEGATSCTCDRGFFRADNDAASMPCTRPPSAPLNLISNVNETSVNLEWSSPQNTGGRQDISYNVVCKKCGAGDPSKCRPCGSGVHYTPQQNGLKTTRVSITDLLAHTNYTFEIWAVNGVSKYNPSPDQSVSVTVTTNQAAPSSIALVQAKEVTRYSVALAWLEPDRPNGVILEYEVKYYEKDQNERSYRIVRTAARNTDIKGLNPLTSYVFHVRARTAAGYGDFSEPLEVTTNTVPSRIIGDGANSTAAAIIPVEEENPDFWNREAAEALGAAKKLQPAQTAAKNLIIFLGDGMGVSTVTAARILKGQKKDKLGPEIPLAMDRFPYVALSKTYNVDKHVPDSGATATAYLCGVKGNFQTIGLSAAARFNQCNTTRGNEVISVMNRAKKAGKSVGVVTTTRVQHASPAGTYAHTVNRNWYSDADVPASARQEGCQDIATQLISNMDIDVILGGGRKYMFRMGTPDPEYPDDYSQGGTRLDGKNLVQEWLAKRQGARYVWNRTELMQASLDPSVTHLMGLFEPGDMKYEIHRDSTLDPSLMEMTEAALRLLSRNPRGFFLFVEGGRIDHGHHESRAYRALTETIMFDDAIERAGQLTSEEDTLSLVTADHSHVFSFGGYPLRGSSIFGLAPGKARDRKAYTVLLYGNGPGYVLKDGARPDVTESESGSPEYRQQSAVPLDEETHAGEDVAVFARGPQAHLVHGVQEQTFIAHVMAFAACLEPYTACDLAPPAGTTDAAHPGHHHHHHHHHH

B1: mouse anti-EphA4 monoclonal antibody (antibody A) (antibody, mouse IgG1, kappa, V domains shown)
VH: QVQLKQSGPSLVQPSQSLSITCTVSGFSLTRYGVHWVRQSPGKGLEWLGVIWRGGSTDYNAAFMSRLSITKDNSKSQVFFKMNSLQADDTAIYYCAKESLFGVYYDYGYYSMDYWGQGTSVTVSS
VL: DIQMTQSPSSLSASLGERVSLTCRASQEISGYLSWLQQKPDGTIKRLIYAASTLDSGVPKRFSGSRSGSDYSLTISSLESEDFADYYCLQYASYPLTFGAGTKLELKR
notes: purified from hybridoma supernatant
In turn, B1 registered an IC50 in assay [1] of roughly 3.1 nM. In assay [2], this molecule showed a koff of 0.000448 s⁻¹ and a kon of 379000 M⁻¹ s⁻¹.

B2: humanized anti-EphA4 monoclonal antibody (antibody B) (antibody, human IgG2, V domains shown)
VH: QVQLVESGGGVVQPGRSLRLSCAVSGFSLTRFGVHWVRQAPGKGLEWVAVIWRGGSTDYNAAFMSRLTISKDNSKNTVYLQMNSLRAEDTAVYYCAKESLFGVYYDYGYYSMDYWGQGTTVTVSS
VL: DIQMTQSPSSLSASVGDRVTITCRASQEISGYLSWLQQKPGKAPKRLIYAASTLDSGVPSRFSGSRSGTEYTLTISSLQPEDFATYYCLQYASYPLTFGGGTKVEIKR
notes: expressed in Expi293F cells; also called humanized antibody of antibody A; HK2-42 / L1-8
The molecule B2 had an IC50 in assay [1] of roughly 4.2 nM. The “EC50 (read off the curve)” value in assay [3], in assay [4] and in assay [5] was roughly 0.3 nM each time.
